# Laboratory results from publication PMC3402500, “Genes for Carbon Metabolism and the ToxA Virulence Factor in Pseudomonas aeruginosa Are Regulated through Molecular Interactions of PtxR and PtxS” (PLoS ONE, 2012).
# B1: PtoxA 50-mer mutant operator (dsDNA)
# DNA 1: GATATCGGCTGCTGGCCAGGCCGACAGCCTCGTGCTTCAA
# DNA 2: TTGAAGCACGAGGCTGTCGGCCTGGCCAGCAGCCGATATC
# B2: PtxR (natural protein)
# chain: MSAALERLNHLNLNHLYAFVAVAEHNSFTAAAEALGLSKSLLSEQLRRLEADLGIQLLTRTTRRMTLTDRGELLFGVAQRMLGELDGALSDVRDLQGEPSGRLRITAPQDFVKWHISSVSAAFIRQFPKVQVEMLADDQFSDLVGQRIDLAVRIGWPRDSGLHASKLCDFQQVAVATPGYLAGLPPVLQPHDLARCEWIGHTRLSTPWTWTFERQRERATVQTRGRLLANNTLAVYRLVLDGAGVSVLPSFLVAREIARGRLVRLLPGWRLPQGGIYALYPSARYMPVRVRAFIESLREHLGREPFRLAQSE
# notes: PtxR, LysR-type transcriptional regulator of Pseudomonas aeruginosa PAO1; ptxR gene amplified from chromosomal DNA and cloned NheI/XhoI into pET24b(+); The NheI/XhoI cloning into pET24b(+) may add a few vector residues at both ends; source: E. coli BL21 (DE3), purified (His-Trap chelating column); not shown: His6, C-terminal, kept
# B3: PtxS (natural protein)
# chain: MNGSVLPSRGRVTINQVAEAAGVSKASVSRYIGGDRQLLADATARRIERAIDQLDYRPNQMARGLKRGRTRLIGMLVADILNPYSVAVMHGVETACREHGYSLVVCNTDRDDEQERHHLAALQSYNVEGLIVNTLGHHPGELRALHRELPMVLVDRQLAELDTDLVGLDNADAVEQALDHLQHRGFRDILLVTEPLDGTSSRIERVQAFNASIGRRPALKGQVLQTDDFFRDGLRAFLSASGPGPKALFTCNGVATLCATRQLRDLGCRLFDEVGLLALDELDWYPLVGSGITALAQPTDEIGRTAFERLLARLEGDREPARRVTFPAQLIVRGSTHPRG
# notes: PtxS, LacI family transcriptional regulator of Pseudomonas aeruginosa PAO1; ptxS gene amplified from chromosomal DNA and cloned NheI/XhoI into pET24b(+); The NheI/XhoI cloning into pET24b(+) may add a few vector residues at both ends; source: E. coli BL21 (DE3), purified (His-Trap chelating column); not shown: His6, C-terminal, kept
# B4: PtoxA 50-mer (-58 to -8) (dsDNA)
# DNA 1: GATATCGGCTGCTGGCCAGGGGCGCCAGCGCCGACAGCCTCGTGCTTCAA
# DNA 2: TTGAAGCACGAGGCTGTCGGCGCTGGCGCCCCTGGCCAGCAGCCGATATC
# Assays:
# [1] = molecular target: T1, PtxS (Pseudomonas aeruginosa PAO1) (UniProt G3XD97); assay: EMSA; conditions: ITC: 50 mM HEPES pH 7.9, 300 mM NaCl, 1 mM DTT, 10% glycerol, 20 C. EMSA/footprint: 50 mM Tris-HCl pH 7.5, 10 mM NaCl, 0.5 M Mg acetate (so in the source), 0.1 mM …
# T1 sequence: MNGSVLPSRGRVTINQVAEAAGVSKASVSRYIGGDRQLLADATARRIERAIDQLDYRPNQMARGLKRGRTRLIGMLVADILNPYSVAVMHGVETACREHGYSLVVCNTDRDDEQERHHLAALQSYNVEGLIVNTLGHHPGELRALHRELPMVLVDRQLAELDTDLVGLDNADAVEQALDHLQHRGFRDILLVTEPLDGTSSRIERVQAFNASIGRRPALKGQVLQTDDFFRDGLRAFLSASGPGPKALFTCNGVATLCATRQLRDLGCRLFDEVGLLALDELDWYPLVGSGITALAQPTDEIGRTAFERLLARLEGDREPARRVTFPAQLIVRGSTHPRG
# [2] = molecular target: T2, PtxR (Pseudomonas aeruginosa PAO1) (UniProt P72131); assay: EMSA; conditions: ITC: 50 mM HEPES pH 7.9, 300 mM NaCl, 1 mM DTT, 10% glycerol, 20 C. EMSA/footprint: 50 mM Tris-HCl pH 7.5, 10 mM NaCl, 0.5 M Mg acetate (so in the source), 0.1 mM …
# T2 sequence: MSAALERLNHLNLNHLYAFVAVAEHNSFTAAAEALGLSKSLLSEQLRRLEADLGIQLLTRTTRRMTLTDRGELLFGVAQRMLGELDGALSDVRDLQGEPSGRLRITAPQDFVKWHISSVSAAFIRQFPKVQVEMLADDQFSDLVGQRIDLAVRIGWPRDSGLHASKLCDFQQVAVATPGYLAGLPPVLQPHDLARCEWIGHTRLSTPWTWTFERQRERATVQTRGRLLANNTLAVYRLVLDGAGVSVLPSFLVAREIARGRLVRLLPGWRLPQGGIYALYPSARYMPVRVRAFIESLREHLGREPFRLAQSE
# [3] = molecular target: T3, PtxR;PtxS (Pseudomonas aeruginosa PAO1;Pseudomonas aeruginosa PAO1) (UniProt P72131+G3XD97); assay: DNase I footprinting; conditions: ITC: 50 mM HEPES pH 7.9, 300 mM NaCl, 1 mM DTT, 10% glycerol, 20 C. EMSA/footprint: 50 mM Tris-HCl pH 7.5, 10 mM NaCl, 0.5 M Mg acetate (so in the source), 0.1 mM …
# T3 sequence 1: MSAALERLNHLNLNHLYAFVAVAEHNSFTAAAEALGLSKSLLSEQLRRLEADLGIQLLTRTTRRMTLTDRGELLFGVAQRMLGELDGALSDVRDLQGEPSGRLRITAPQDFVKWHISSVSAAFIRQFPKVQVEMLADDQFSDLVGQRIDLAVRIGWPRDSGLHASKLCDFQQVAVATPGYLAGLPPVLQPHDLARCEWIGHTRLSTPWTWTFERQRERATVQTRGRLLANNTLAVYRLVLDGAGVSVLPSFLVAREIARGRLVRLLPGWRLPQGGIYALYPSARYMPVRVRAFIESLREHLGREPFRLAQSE
# T3 sequence 2: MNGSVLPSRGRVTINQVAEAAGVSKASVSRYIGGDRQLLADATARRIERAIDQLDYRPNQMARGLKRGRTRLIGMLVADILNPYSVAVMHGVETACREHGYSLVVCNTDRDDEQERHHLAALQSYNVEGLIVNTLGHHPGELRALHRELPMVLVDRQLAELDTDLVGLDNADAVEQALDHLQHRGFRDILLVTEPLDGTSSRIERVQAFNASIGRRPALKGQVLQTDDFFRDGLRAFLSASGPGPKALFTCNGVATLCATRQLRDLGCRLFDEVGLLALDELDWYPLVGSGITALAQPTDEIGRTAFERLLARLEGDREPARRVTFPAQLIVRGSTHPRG
# [4] = molecular target: T1, PtxS (Pseudomonas aeruginosa PAO1); assay: DNase I footprinting; conditions: ITC: 50 mM HEPES pH 7.9, 300 mM NaCl, 1 mM DTT, 10% glycerol, 20 C. EMSA/footprint: 50 mM Tris-HCl pH 7.5, 10 mM NaCl, 0.5 M Mg acetate (so in the source), 0.1 mM …
# [5] = molecular target: T2, PtxR (Pseudomonas aeruginosa PAO1); assay: DNase I footprinting; conditions: ITC: 50 mM HEPES pH 7.9, 300 mM NaCl, 1 mM DTT, 10% glycerol, 20 C. EMSA/footprint: 50 mM Tris-HCl pH 7.5, 10 mM NaCl, 0.5 M Mg acetate (so in the source), 0.1 mM …
# [6] = molecular target: T4, PtxR (Pseudomonas aeruginosa PAO1, UniProt P72131 1-312); assay: ITC; ITC: 50 mM HEPES pH 7.9, 300 mM NaCl, 1 mM DTT, 10% glycerol, 20 C. EMSA/footprint: 50 mM Tris-HCl pH 7.5, 10 mM NaCl, 0.5 M Mg acetate (so in the source), 0.1 mM EDTA, 1 mM DTT, 5% glycerol, 30 C; EMSA with 20 ug/ml poly(dIC), 200 ug/ml BSA; conditions: protein: recombinant; tags: C-terminal His6 (pET24b); chain copies: 4; blunt
# T4 sequence: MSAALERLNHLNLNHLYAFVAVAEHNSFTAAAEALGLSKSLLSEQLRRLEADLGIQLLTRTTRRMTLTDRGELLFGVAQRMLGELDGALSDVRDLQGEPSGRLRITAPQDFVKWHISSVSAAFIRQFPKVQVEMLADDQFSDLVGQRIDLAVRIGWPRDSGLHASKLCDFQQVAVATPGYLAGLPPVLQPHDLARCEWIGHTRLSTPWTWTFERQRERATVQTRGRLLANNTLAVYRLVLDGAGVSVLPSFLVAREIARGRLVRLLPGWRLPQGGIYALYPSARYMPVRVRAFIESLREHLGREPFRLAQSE
# [7] = molecular target: B3; assay: native gel or EMSA; native polyacrylamide gel, 10 µM homogeneous PtxS, PtxR or both mixed, 1 h at 120 V, Coomassie stain, confirmed by western blot with an anti-His tag antibody; conditions: both partners purified
# [8] = molecular target: B2; assay: ITC; 5 µM PtxR saturated beforehand with 50 µM duplex DNA of P_(toxA) holding the PtxR operator, titrated with 50 µM PtxS; 20°C, 50 mM HEPES pH 7.9, 300 mM NaCl, 1 mM dithiothreitol, 10% glycerol; two binding site model; conditions: both partners purified
# [9] = molecular target: B2; assay: ITC; free proteins; 50 µM PtxS in 3.2 µl aliquots into PtxR (3 µM by the legend); 20°C, 50 mM HEPES pH 7.9, 300 mM NaCl, 1 mM dithiothreitol, 10% glycerol; two binding site model; conditions: both partners purified
# [10] = molecular target: T5, PtxS (Pseudomonas aeruginosa PAO1, UniProt G3XD97 1-340); assay: ITC; ITC: 50 mM HEPES pH 7.9, 300 mM NaCl, 1 mM DTT, 10% glycerol, 20 C. EMSA/footprint: 50 mM Tris-HCl pH 7.5, 10 mM NaCl, 0.5 M Mg acetate (so in the source), 0.1 mM EDTA, 1 mM DTT, 5% glycerol, 30 C; EMSA with 20 ug/ml poly(dIC), 200 ug/ml BSA; conditions: protein: recombinant; tags: C-terminal His6 (pET24b); chain copies: 2; blunt
# T5 sequence: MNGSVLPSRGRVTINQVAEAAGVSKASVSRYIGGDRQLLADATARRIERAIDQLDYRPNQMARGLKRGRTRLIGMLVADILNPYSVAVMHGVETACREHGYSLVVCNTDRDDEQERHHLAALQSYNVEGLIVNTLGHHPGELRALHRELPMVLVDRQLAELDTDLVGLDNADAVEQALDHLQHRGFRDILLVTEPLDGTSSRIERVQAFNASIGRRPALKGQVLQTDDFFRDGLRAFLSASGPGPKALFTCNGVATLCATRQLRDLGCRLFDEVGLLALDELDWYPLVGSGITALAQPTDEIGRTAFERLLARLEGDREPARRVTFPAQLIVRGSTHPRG
# [11] = molecular target: PtxR K39A (Pseudomonas aeruginosa PAO1, UniProt P72131 1-312, K39A); assay: as above; conditions: protein: recombinant; tags: C-terminal His6 (pET24b); chain copies: 4; blunt
# [12] = molecular target: PtxR D52A (Pseudomonas aeruginosa PAO1, UniProt P72131 1-312, D52A); assay: as above; conditions: protein: recombinant; tags: C-terminal His6 (pET24b); chain copies: 4; blunt
# [13] = molecular target: PtxR S40A (Pseudomonas aeruginosa PAO1, UniProt P72131 1-312, S40A); assay: as above; conditions: protein: recombinant; tags: C-terminal His6 (pET24b); chain copies: 4; blunt
# [14] = molecular target: PtxR R47A (Pseudomonas aeruginosa PAO1, UniProt P72131 1-312, R47A); assay: as above; conditions: protein: recombinant; tags: C-terminal His6 (pET24b); chain copies: 4; blunt
# [15] = molecular target: PtxR E44A (Pseudomonas aeruginosa PAO1, UniProt P72131 1-312, E44A); assay: as above; conditions: protein: recombinant; tags: C-terminal His6 (pET24b); chain copies: 4; blunt
molecule,measurement,setting,value
CCGTTGACGGCCTTGTCATCGGGCATGGTGGGGTCCTCTCTGGATCATCACGGTTTCGTCTTTCTGATAATGATTAGCAGGCTAATTATAAGTTCATGTGTCACGTTGAAAAAACGTTTCAGCAAGGATTCAGGCAGGCCAATACCGGCAAGTGAAGCAGAACGGCGCGCCGGGCGTCGGCCCGGCGCGGCCTTCAGGCGCCTCGCCGTCGCGCCCAGGCCGAAGGATTGACCAGGTTCAGCGGCC (double strand) [Pgad promoter fragment],binding,[1],binds
same,binding,[2],binds
same,binding,[3],binds
same,binding,[4],binds
same,binding,[5],binds
CAACTGATCGTTCGCGGCTCGACCCATCCACGCGGCTAGCGGCCCGCCGCCGGCGCGTTGCCGGCGGCTTTCGCACGGCTTGAAATGAAACCGGTTTCAGAGGATCGCCAATGTCCCTTCACCCCGTCTCCATCAGTCTTTCCAGCTATGGCGCGGACCTCGTTCGCAGTCGCGGCCAGGCCAGCTTCCTGCCCTTGCTGGCGATGGCCGGCGCGCAGCGCGTGGAACTGCGCGAGGAACTCTTCGCCGGCCCGCCGGATACCGAGGCGCTGACCGCCGCCATCCAGTT (double strand) [Pkgu promoter fragment],binding,[1],binds
same,binding,[2],binds
B1,binding result,[6],no binding
B2,binding result,[7],binds
B3,"KD of the first event, PtxR bound to DNA",[8],~1700 nM
same,"KD of the second event, PtxR bound to DNA",[8],~8200 nM
same,"KD of the first, high affinity event",[9],12 ± 3 nM
same,"KD of the second, lower affinity event",[9],102 ± 10 nM
same,"dH of the first, high affinity event",[9],-17.8 ± 0.9 kcal/mol
same,"dH of the second, lower affinity event",[9],-9.1 ± 0.5 kcal/mol
same,stoichiometry N,[9],1.02
B4,binding result,[10],no binding
same,Kd,[6],164 ± 6 nM
same,binding result,[11],no binding
same,binding result,[12],no binding
same,binding result,[13],no binding
same,Kd,[14],240 ± 11 nM
same,binding result,[15],no binding
